From patent US20140086936 come the findings set out here.

This data set concerns the target hemagglutinin (HA0) of influenza A/Puerto Rico/8/34 (PR8) virus, P03452.

B1: Recombinant purified human matriptase (amino acids 596-855) (protein)
chain: GSDEKDCDCGLRSFTRQARVVGGTDADEGEWPWQVSLHALGQGHICGASLISPNWLVSAAHCYIDDRGFRYSDPTQWTAFLGLHDQSQRSAPGVQERRLKRIISHPFFNDFTFDYDIALLELEKPAEYSSMVRPICLPDASHVFPAGKAIWVTGWGHTQYGGTGALILQKGEIRVINQTTCENLLPQQITPRMMCVGFLSGGVDSCQGDSGGPLSSVEADGRIFQAGVVSWGDGCAQRNKPGVYTRLPLFRDWIKENTGV
As for B1, the “cleavage of HA0 to HA1, Western blot” value is reported as “matriptase was able to cleave viral HA”.
